{
  "source": "patent US20180231562A1",
  "about": "(UCB, published 2018)",
  "binders": {"B1": {"name": "CA185_01979 (antibody, mouse IgG1, kappa, V domains shown)", "VH": "EVHLVESGPGLVKPSQSLSLTCSVTGYSITNSYWDWIRKFPGNKMEWMGYINYSGSTGYNPSLKSRISISRDTSNNQFFLQLNSITTEDTATYYCARGTYGYNAYHFDYWGRGVMVTVSS", "VL": "DIQMTQSPASLSASLEEIVTITCQASQDIGNWLSWYQQKPGKSPHLLIYGTTSLADGVPSRFSGSRSGTQYSLKISGLQVADIGIYVCLQAYSTPFTFGSGTKLEIKR", "notes": "also called CA185_01979.0; CA185_1979"}},
  "key": {"[1]": {"target": "T1, human TNFα in complex with compound (39) (human, UniProt P01375 77-233)", "T1 construct": "also called Human TNFα + compound (39); compound-distorted human TNFα", "T1 sequence (P01375 77-233 limits assumed, one chain of several)": "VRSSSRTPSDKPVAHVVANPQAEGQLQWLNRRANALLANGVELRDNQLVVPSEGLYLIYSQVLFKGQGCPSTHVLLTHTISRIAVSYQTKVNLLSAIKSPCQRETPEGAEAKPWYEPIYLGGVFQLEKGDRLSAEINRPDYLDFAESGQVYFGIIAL", "assay": "SPR (BIAcore T200), against apo human TNFα"}, "[2]": {"target": "T2, human TNFα in complex with compound (15) (human, UniProt P01375 77-233)", "T2 construct": "also called Human TNFα + compound 15; Human TNFα + compound (15)", "T2 sequence (P01375 77-233 limits assumed, one chain of several)": "as above", "assay": "SPR (BIAcore T200), against apo human TNFα"}},
  "data": [
    {"binder": "B1", "values": [
      {"measurement": "selective binding over apo human TNFα (log)", "setting": "[1]", "value": "> 2", "unit": "log"},
      {"measurement": "selective binding over apo human TNFα (log)", "setting": "[2]", "value": "> 2", "unit": "log"}
    ]}
  ]
}
